# Source: article PMC8276246, “Unlimited Cooperativity of Betatectivirus SSB, a Novel DNA Binding Protein Related to an Atypical Group of SSBs From Protein-Primed Replicating Bacterial Viruses”
# T1: Φ29 terminal protein (Φ29TP) (Bacillus phage Φ29, UniProt P03681 1-266)
# T1 sequence: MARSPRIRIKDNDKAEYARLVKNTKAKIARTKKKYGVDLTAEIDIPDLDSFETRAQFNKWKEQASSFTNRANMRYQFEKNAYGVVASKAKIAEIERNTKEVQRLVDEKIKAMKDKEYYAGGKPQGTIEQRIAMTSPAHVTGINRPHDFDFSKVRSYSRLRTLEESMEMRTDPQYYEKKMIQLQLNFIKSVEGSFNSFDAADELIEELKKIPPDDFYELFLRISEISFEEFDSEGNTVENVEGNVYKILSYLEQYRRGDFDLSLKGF
# B1: 50-mer (ssDNA)
# DNA: GAAAATAAAAATAAACTGGACAATTAAGGATCCTGTACAAGTCGACGCGG
# B2: 50-mer dsDNA (dsDNA)
# DNA 1: B1 DNA
# DNA 2: CCGCGTCGACTTGTACAGGATCCTTAATTGTCCAGTTTATTTTTATTTTC
# B3: RNA-50mer (ssRNA)
# RNA: GAAAAUAAAAAUAAACUGGACAAUUAAGGAUCCUGUACAAGUCGACGCGG
# Tests used:
# [1] = system: B35SSB (Bacillus phage Bam35 (betatectivirus)); experiment: EMSA; conditions: EMSA: 50 mM Tris-HCl pH 7.5, 50 mM NaCl, 1 mM DTT, 4% glycerol, 0.1 mg/ml BSA, 0.05% Tween 20, 1 mM EDTA, 10 min at 4 C, 2 nM labeled probe
# [2] = target: EcoSSB (Escherichia coli, UniProt P0AGE0 1-178); experiment: EMSA; 1 uM protein; EMSA: 50 mM Tris-HCl pH 7.5, 50 mM NaCl, 1 mM DTT, 4% glycerol, 0.1 mg/ml BSA, 0.05% Tween 20, 1 mM EDTA, 10 min at 4 C; 2 nM labeled probe; conditions: chain copies: 4; label: 5' 32P
# [3] = target: T1, Φ29 terminal protein (Φ29TP); experiment: EMSA; 20 nM protein; EMSA: 50 mM Tris-HCl pH 7.5, 50 mM NaCl, 1 mM DTT, 4% glycerol, 0.1 mg/ml BSA, 0.05% Tween 20, 1 mM EDTA, 10 min at 4 C; 2 nM labeled probe; conditions: label: 5' 32P on strand 1; blunt
# Sequence of EcoSSB (P0AGE0 whole entry): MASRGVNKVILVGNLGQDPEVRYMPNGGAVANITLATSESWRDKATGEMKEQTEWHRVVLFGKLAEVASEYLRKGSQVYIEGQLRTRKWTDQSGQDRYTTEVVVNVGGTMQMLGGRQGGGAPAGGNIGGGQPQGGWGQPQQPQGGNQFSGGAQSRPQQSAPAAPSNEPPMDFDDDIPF
molecule,measurement,setting,value
GGCCCATATGTACCCATACGACGTCCCAGACTACGCTGGGACGGGGAGCGGGGCCAGTAAACTACTGACTGCGCAAGAGG [80-mer],binding signal,[1]; 250 nM protein,70 % bound
GATCACAGTGAGTAC [15-mer],binding signal,"[1]; 1 uM protein, minor smear",< 10 % bound
ACTGGCCGTCGTTCTATTGTACTCACTGTGATC [33-mer],binding signal,[1]; 500 nM protein (25% bound at 250 nM),50 % bound
GAAAAUAAAAAUAAACUGGACAAUUAAGGAUCCUGUACAAGUCGACGCGG [RNA-50mer],binding signal,[1]; 5 uM protein,10 % bound
B1,binding result,[2],binds
B2,binding result,[3],binds
B3,binding result,[2],binds
